In patent US20230051715A1 (MABWELL THERAPEUTICS, published 2023):

Experiments:
[1] = molecular target: T1, human C1s mutant M9 (K336G, D343Y & E351A) (human, UniProt P09871 16-688); assay: ELISA, plate coated with human C1s mutant M9: K336G, D343Y, E351A, OD450nm; the curve reaches only OD450 about 0.7 at 1000 ng/ml
T1 construct: The entry is the mutant itself
T1 sequence: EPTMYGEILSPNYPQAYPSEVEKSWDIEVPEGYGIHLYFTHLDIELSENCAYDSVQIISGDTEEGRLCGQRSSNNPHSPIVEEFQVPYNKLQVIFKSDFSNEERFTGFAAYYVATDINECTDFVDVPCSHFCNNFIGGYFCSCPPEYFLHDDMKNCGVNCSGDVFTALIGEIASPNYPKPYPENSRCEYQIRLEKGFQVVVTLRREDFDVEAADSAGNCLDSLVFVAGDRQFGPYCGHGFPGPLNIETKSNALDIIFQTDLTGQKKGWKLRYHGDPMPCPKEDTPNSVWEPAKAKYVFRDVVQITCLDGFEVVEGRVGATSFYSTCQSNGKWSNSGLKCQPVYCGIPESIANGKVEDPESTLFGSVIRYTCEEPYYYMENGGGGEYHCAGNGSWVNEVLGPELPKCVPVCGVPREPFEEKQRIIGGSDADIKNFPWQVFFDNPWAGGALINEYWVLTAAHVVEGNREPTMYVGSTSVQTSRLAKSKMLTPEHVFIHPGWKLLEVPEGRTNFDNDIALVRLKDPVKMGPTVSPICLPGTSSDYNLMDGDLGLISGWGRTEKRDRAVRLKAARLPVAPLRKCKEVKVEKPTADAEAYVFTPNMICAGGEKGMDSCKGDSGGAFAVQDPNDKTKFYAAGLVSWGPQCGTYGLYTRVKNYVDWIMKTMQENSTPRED
Procedure: ELISA was carried out by first coating 96-well plates with 200 ng/well of full-length or truncated C1s proteins overnight. The next morning, plates were blocked with SuperBlock T20 blocking buffer (Thermo Scientific 37536) for 1 h with gentle shaking. Then, various concentrations of anti-C1s antibodies diluted in SuperBlock T20 blocking buffer were added to the plates and incubated for 1 h with gentle shaking. Mouse IgG (Sigma-Aldrich 15381) and human IgG1 (BioXCell BP0297) were used as negative controls. The plates were washed before incubating with HRP conjugated secondary antibodies diluted in SuperBlock T20 blocking buffer (goat anti-mouse IgG (H+L) cross-adsorbed secondary antibody HRP (Invitrogen G-21040) or goat anti-human IgG antibody, HRP conjugate (Millipore AP309P)) for 1 h with gentle shaking. At last, the plates were washed and color developed with ELISA liquid HRP substrate (Sigma-Aldrich), followed by stopping the reaction with addition of 1M H₂SO₄ in the same volume as the ELISA liquid substrate. Bound antibody was measured by absorbance at OD₄₅₀ₙₘ.
Binding of anti-C1s antibodies to mutants M1-M20 of human C1s was measured by ELISA as described in Example 4, and results are shown in FIGS. 6B-6U. […]

[2] = molecular target: T2, cynomolgus monkey C1s (produced in house) (cynomolgus monkey, UniProt P09871 16-685 (human entry), limits assumed); assay: BLI (Octet RED96e), antibody on AHC biosensor; C1s Species: Cyno Monkey; R^2 0.9997
T2 construct: also called CyC1s
T2 chain: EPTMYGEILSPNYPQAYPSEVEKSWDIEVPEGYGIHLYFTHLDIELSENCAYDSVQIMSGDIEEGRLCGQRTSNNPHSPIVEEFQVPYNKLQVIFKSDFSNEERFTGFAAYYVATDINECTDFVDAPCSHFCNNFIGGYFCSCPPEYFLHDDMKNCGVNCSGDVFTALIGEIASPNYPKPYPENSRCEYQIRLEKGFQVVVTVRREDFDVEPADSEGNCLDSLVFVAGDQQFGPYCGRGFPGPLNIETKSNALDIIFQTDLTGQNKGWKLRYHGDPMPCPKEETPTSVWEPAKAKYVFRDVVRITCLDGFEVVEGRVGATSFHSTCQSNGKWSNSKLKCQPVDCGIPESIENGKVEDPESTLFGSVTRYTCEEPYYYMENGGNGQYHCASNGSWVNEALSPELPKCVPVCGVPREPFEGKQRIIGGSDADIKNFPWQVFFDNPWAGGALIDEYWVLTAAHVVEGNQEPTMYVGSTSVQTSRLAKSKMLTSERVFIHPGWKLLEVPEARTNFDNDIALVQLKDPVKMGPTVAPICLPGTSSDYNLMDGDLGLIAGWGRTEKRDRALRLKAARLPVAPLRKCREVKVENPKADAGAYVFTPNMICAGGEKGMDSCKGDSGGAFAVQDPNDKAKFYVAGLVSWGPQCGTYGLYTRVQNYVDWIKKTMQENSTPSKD
Source text: At last, analyte was dissociated in 1×KB for 360 sec. Data analysis was done using OCTET® Data Analysis HT Software (Sartorius AG).

EC50 [1]: 0.013 µg/mL
Kd [2]: 0.94 nM
koff [2]: 0.00023 s⁻¹
kon [2]: 250000 M⁻¹ s⁻¹
B1: Anti-C1s antibody hz2-7(H1L2) (antibody, V domains shown)
VH: EVQLLESGGGLVQPGGSLRLSCAASGFTFSNYFMNWVRQAPGKGLEWVSEIRLKFTNYATHYADSVKGRFTISRDDSKSTLYLQMNSLRAEDTAVYYCTRDYGSRNGYFDYWGQGTLVTVSS
VL: DIVMTQTPLSLPVTPGEPASISCRSSKSLLHSNGNTFLYWFLQKPGQSPQLLIYRMSNLASGVPDRFSGSGSGTDFTLKISRVEAEDVGVYYCMQHLEYPYTFGGGTKLEIKR
notes: Humanized, human IgG1 / kappa; also called hz2-7(1L2)
